Experiments:
[1] = target: human insulin-like growth factor I receptor IGF-IR (human) (UniProt P08069); assay: displacement of [125I]IGF-1 on R+ intact cells expressing IGF-IR
[2] = target: T1, human insulin-like growth factor I receptor IGF-IR (human, UniProt P08069 31-1367); assay: cell-based or functional assay
[3] = target: T1, human insulin-like growth factor I …; assay: displacement of [125I]IGF-1 on R+ intact cells expressing IGF-IR
[4] = target: T2, Hybrid-RsA (insulin/IGF-I hybrid receptor with IR isoform A) (human, UniProt P08069 31-1367; P06213 28-1370); assay: displacement of [125I]-IGF1 on immunocaptured Hybrid-RsA
T2 construct: Heterodimer of an IGF-IR half and an IR-A half, captured on plates coated with antibody 83-7; also called HR-A; hybrid receptors A

Molecule	IC50 [1]	proliferative index of MCF-7 cells at 50 ng/ml IGF1, antibody 5 µg/ml [2]	IC50 [3]	IC50 [4]
2D10 (antibody, V domains shown, also called hybridoma CNCM I-3214) VH: EVNLVESGGILVKPGGSLRLSCAASGFTFSNYAMSWVRQTPEKRLEWVASIGSAGYIHYPDSVKGRFTISRDNARNILYLQMSSLRSEDTAMYYCAREGGLVWFAYWGQGTLVTVSA VL: ETTVTQSPASLSVATGEKVTIRCITSTDIDDDMNWYQQKPGEPPKLLISEGNTLRPGVPSRFSSSGYGTDFVLTIENTLSEDVADYYCLQSDKMPLTFGAGTKLELK		< 5	0.15 nM	0.2 nM
12B1 (antibody, V domains shown) VH: QVQLKESGPDLVAPSQSLSITCTVSGFSLTNYGVHWVRQFPGKGLEWLGVIWAGGNTNYNSALMSRLTISKDNSKSQVFLKMNSLQTDDTAVYYCAREYGSTYVAWFAHWGQGTLVTVSS VL: ENVLTQSPAIMSASPGEKVTMTCGASSSVSSSFLHWYQQKSGASPKLWIYSTSNLASGVPTRFSGSGSGTSYSLTISSVEAEDAATYYCQQYSGYPLTFGAGTKLELK		< 5		

Next, values leading:

IC50 [1]	proliferative index of MCF-7 cells at 50 ng/ml IGF1, antibody 5 µg/ml [2]	IC50 [3]	IC50 [4]	Molecule
0.05 nM				αIR3 (antibody)
	< 5	0.2 nM	0.35 nM	13F5 (antibody, V domains shown, also called hybridoma CNCM I-3193) VH: QAQLQQPGAVLVRPGASVKLSCKASSYSFTDYWMNWVKRRPGQGLQWIGLIHPSDSETRLDQNFKDKATLTVDKFSSTAYMQLNSPTSEDSAVYYCTRSVIYYGNYRWYFDVWGAGTTVTVSS VL: DVLMTQTPLSLPVSLGDQASISCRSSQTIIHSNGNTYLEWYLQKPGQSPKLLIYKVSNRFSGVPDRFSGSGSGTDFTLKISRVEAEDLGVYYCFQGSHVPYTFGGGTKLEIK
	< 5			12D5 (antibody, V domains shown) VH: QVQLKESGPGLVAPSQSLSITCTVSGFSLNEYGVSWIRQPPGKGLEWLGVIWGGRDTYYHSPLKSRLSITKDNSKSQVFLKMNSLQTDDTAMYYCAKHEGMDYWGQGTSVTVSS VL: DIVMTQSQKFMSTSVGDRVSVTCKASQNVVTNVAWYQHKPGHSPKPLIYSASYRYSGVPDRFTGSGSGTDFTLTINNVQSEDLAEYFCHQYNNFPLTFGAGTKLELK
